The target in this experiment is cytochrome b6f complex from Chlamydomonas reinhardtii (Chlamydomonas reinhardtii) (UniProt Q00471). Nature of the experiment: crystal structure.

By stoichiometry N is commonly meant a count of units in the complex or per binding partner.

In turn, “cytochrome b6f complex from Chlamydomonas reinhardtii (from UniProt Q00471 1-215; P49728 30-206; P23230 1-160; P23577 32-317)” had a stoichiometry N of 2.

These data come from paper PMC3865438.
